The supplement of paper PMC9112550, “Optimization of the antimicrobial peptide Bac7 by deep mutational scanning” (BMC Biology, 2022)

What follows are sequences tested on Escherichia coli TOP10 (assay: shrunken log2 fold change of peptide-encoding DNA abundance (4.5 h post-induction vs induction); higher = less antimicrobial activity (less host growth inhibition)). Conditions: time post-induction: 4.5 h; library: site-saturation at positions 5, 18, 19, 20.
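Further: peptides expressed intracellularly from a pBAD plasmid library in pooled LB shake-flask culture, induced with 0.3% L-arabinose, DNA abundance read by NGS, three biological replicates, DESeq2 with apeglm shrinkage.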

Sequence | shrunken log2 fold change
RRIRFRPPRLPRPRPRPIYDPRP | -0.626
RRIRFRPPRLPRPRPRPIYQPRP | -0.21
RRIRFRPPRLPRPRPRPIYSPRP | -0.751
RRIRFRPPRLPRPRPRPIYWPRP | 0.0843
RRIRFRPPRLPRPRPRPKASPRP | 0.157
RRIRFRPPRLPRPRPRPKDEPRP | -0.13
RRIRFRPPRLPRPRPRPKFHPRP | -0.42
RRIRFRPPRLPRPRPRPKFYPRP | -0.308
RRIRFRPPRLPRPRPRPKGGPRP | 0.00425
RRIRFRPPRLPRPRPRPKHYPRP | -0.271
RRIRFRPPRLPRPRPRPKIDPRP | 0.00783
RRIRFRPPRLPRPRPRPKKEPRP | 0.0316
RRIRFRPPRLPRPRPRPKKRPRP | 0.3
RRIRFRPPRLPRPRPRPKLCPRP | -0.14
RRIRFRPPRLPRPRPRPKLFPRP | -0.0554
RRIRFRPPRLPRPRPRPKLPPRP | 0.404
RRIRFRPPRLPRPRPRPKMLPRP | -0.0622
RRIRFRPPRLPRPRPRPKNPPRP | -0.00149
RRIRFRPPRLPRPRPRPKPMPRP | 0.521
RRIRFRPPRLPRPRPRPKPVPRP | 0.727
RRIRFRPPRLPRPRPRPKQVPRP | -0.176
RRIRFRPPRLPRPRPRPKRNPRP | 0.203
RRIRFRPPRLPRPRPRPKRTPRP | 0.0846
RRIRFRPPRLPRPRPRPKSHPRP | -0.506
RRIRFRPPRLPRPRPRPKSMPRP | 0.102

Sequence | shrunken log2 fold change
RRIRFRPPRLPRPRPRPKWAPRP | -0.075
RRIRFRPPRLPRPRPRPKYNPRP | -0.978
RRIRFRPPRLPRPRPRPLAMPRP | -0.0206
RRIRFRPPRLPRPRPRPLAWPRP | 0.32
RRIRFRPPRLPRPRPRPLCPPRP | 0.016
RRIRFRPPRLPRPRPRPLCTPRP | -0.137
RRIRFRPPRLPRPRPRPLDDPRP | -0.209
RRIRFRPPRLPRPRPRPLEKPRP | -0.14
RRIRFRPPRLPRPRPRPLEQPRP | 0.0789
RRIRFRPPRLPRPRPRPLGHPRP | -0.0599
RRIRFRPPRLPRPRPRPLHLPRP | -0.166
RRIRFRPPRLPRPRPRPLHRPRP | 0.136
RRIRFRPPRLPRPRPRPLHYPRP | -0.299
RRIRFRPPRLPRPRPRPLIAPRP | -0.234
RRIRFRPPRLPRPRPRPLIWPRP | -0.13
RRIRFRPPRLPRPRPRPLKHPRP | -0.475
RRIRFRPPRLPRPRPRPLKPPRP | -0.178
RRIRFRPPRLPRPRPRPLKTPRP | -0.112
RRIRFRPPRLPRPRPRPLLVPRP | 0.0528
RRIRFRPPRLPRPRPRPLMTPRP | 0.189
RRIRFRPPRLPRPRPRPLPWPRP | -0.195
RRIRFRPPRLPRPRPRPLQIPRP | -0.384
RRIRFRPPRLPRPRPRPLQKPRP | -0.235
RRIRFRPPRLPRPRPRPLQNPRP | 0.0294
RRIRFRPPRLPRPRPRPLRSPRP | 0.259

Sequence | shrunken log2 fold change
RRIRFRPPRLPRPRPRPLSEPRP | -0.22
RRIRFRPPRLPRPRPRPLTKPRP | -0.2
RRIRFRPPRLPRPRPRPLVSPRP | -0.425
RRIRFRPPRLPRPRPRPLYGPRP | -0.303
RRIRFRPPRLPRPRPRPLYHPRP | -0.859
RRIRFRPPRLPRPRPRPLYMPRP | -0.921
RRIRFRPPRLPRPRPRPLYPPRP | -0.205
RRIRFRPPRLPRPRPRPMAHPRP | 0.0587
RRIRFRPPRLPRPRPRPMANPRP | -0.104
RRIRFRPPRLPRPRPRPMDNPRP | 0.000389
RRIRFRPPRLPRPRPRPMEIPRP | -0.298
RRIRFRPPRLPRPRPRPMFPPRP | -0.368
RRIRFRPPRLPRPRPRPMFWPRP | -0.0645
RRIRFRPPRLPRPRPRPMGKPRP | -0.307
RRIRFRPPRLPRPRPRPMGLPRP | -0.00847
RRIRFRPPRLPRPRPRPMHKPRP | -0.263
RRIRFRPPRLPRPRPRPMIQPRP | -0.0594
RRIRFRPPRLPRPRPRPMISPRP | -0.446
RRIRFRPPRLPRPRPRPMLCPRP | -0.103
RRIRFRPPRLPRPRPRPMNWPRP | -0.143
RRIRFRPPRLPRPRPRPMPDPRP | -0.0671
RRIRFRPPRLPRPRPRPMPLPRP | -0.417
RRIRFRPPRLPRPRPRPMPMPRP | -0.00868
RRIRFRPPRLPRPRPRPMQFPRP | -0.0783
RRIRFRPPRLPRPRPRPMQKPRP | 0.00713

Sequence | shrunken log2 fold change
RRIRFRPPRLPRPRPRPMQNPRP | 0.027
RRIRFRPPRLPRPRPRPMQSPRP | -0.208
RRIRFRPPRLPRPRPRPMRHPRP | 0.0162
RRIRFRPPRLPRPRPRPMRNPRP | 0.92
RRIRFRPPRLPRPRPRPMRSPRP | 0.904
RRIRFRPPRLPRPRPRPMSIPRP | -0.354
RRIRFRPPRLPRPRPRPMSLPRP | -0.142
RRIRFRPPRLPRPRPRPMTFPRP | -0.0585
RRIRFRPPRLPRPRPRPMWLPRP | 0.0605
RRIRFRPPRLPRPRPRPMWVPRP | -0.00617
RRIRFRPPRLPRPRPRPMWWPRP | 0.0551
RRIRFRPPRLPRPRPRPNAIPRP | -0.322
RRIRFRPPRLPRPRPRPNDMPRP | -0.388
RRIRFRPPRLPRPRPRPNEAPRP | -0.0305
RRIRFRPPRLPRPRPRPNESPRP | 0.0698
RRIRFRPPRLPRPRPRPNFPPRP | -0.254
RRIRFRPPRLPRPRPRPNFRPRP | 0.157
RRIRFRPPRLPRPRPRPNGDPRP | -0.131
RRIRFRPPRLPRPRPRPNHNPRP | -0.711
RRIRFRPPRLPRPRPRPNKFPRP | -0.783
RRIRFRPPRLPRPRPRPNKQPRP | 0.0839
RRIRFRPPRLPRPRPRPNMRPRP | 0.386
RRIRFRPPRLPRPRPRPNMWPRP | -0.485
RRIRFRPPRLPRPRPRPNNIPRP | -1.04
RRIRFRPPRLPRPRPRPNNQPRP | -0.559

Sequence | shrunken log2 fold change
RRIRFRPPRLPRPRPRPNNRPRP | -0.139
RRIRFRPPRLPRPRPRPNPTPRP | 0.0233
RRIRFRPPRLPRPRPRPNSLPRP | -0.189
RRIRFRPPRLPRPRPRPNTNPRP | -0.622
RRIRFRPPRLPRPRPRPNTTPRP | -0.0257
RRIRFRPPRLPRPRPRPNVTPRP | -0.724
RRIRFRPPRLPRPRPRPNWMPRP | -0.0436
RRIRFRPPRLPRPRPRPNWRPRP | -0.0764
RRIRFRPPRLPRPRPRPPAMPRP | 0.775
RRIRFRPPRLPRPRPRPPAVPRP | 0.713
RRIRFRPPRLPRPRPRPPCEPRP | 0.409
RRIRFRPPRLPRPRPRPPFQPRP | 0.258
RRIRFRPPRLPRPRPRPPFWPRP | 0.538
RRIRFRPPRLPRPRPRPPGYPRP | 0.0848
RRIRFRPPRLPRPRPRPPHEPRP | -0.064
RRIRFRPPRLPRPRPRPPHRPRP | 0.324
RRIRFRPPRLPRPRPRPPIKPRP | 0.0125
RRIRFRPPRLPRPRPRPPLMPRP | 0.154
RRIRFRPPRLPRPRPRPPLQPRP | 0.353
RRIRFRPPRLPRPRPRPPPIPRP | 1.02
RRIRFRPPRLPRPRPRPPQPPRP | 0.795
RRIRFRPPRLPRPRPRPPRHPRP | 0.411
RRIRFRPPRLPRPRPRPPSGPRP | 0.422
RRIRFRPPRLPRPRPRPPSPPRP | 0.688
RRIRFRPPRLPRPRPRPPTDPRP | 0.414

Sequence | shrunken log2 fold change
RRIRFRPPRLPRPRPRPPTPPRP | 0.908
RRIRFRPPRLPRPRPRPPVLPRP | 0.006
RRIRFRPPRLPRPRPRPPVMPRP | 0.0132
RRIRFRPPRLPRPRPRPPVTPRP | -0.132
RRIRFRPPRLPRPRPRPPWAPRP | 0.267
RRIRFRPPRLPRPRPRPPWVPRP | 0.401
RRIRFRPPRLPRPRPRPPYDPRP | -0.49
RRIRFRPPRLPRPRPRPQAQPRP | 0.023
RRIRFRPPRLPRPRPRPQAWPRP | 0.15
RRIRFRPPRLPRPRPRPQCEPRP | 0.0491
RRIRFRPPRLPRPRPRPQDNPRP | -0.186
RRIRFRPPRLPRPRPRPQFKPRP | -0.217
RRIRFRPPRLPRPRPRPQFPPRP | -0.16
RRIRFRPPRLPRPRPRPQHDPRP | -0.394
RRIRFRPPRLPRPRPRPQHKPRP | -0.51
RRIRFRPPRLPRPRPRPQHSPRP | -0.347
RRIRFRPPRLPRPRPRPQHTPRP | -0.164
RRIRFRPPRLPRPRPRPQIVPRP | 0.0871
RRIRFRPPRLPRPRPRPQLEPRP | 0.118
RRIRFRPPRLPRPRPRPQLPPRP | -0.0654
RRIRFRPPRLPRPRPRPQNAPRP | 0.0534
RRIRFRPPRLPRPRPRPQPSPRP | 0.279
RRIRFRPPRLPRPRPRPQQDPRP | -0.24
RRIRFRPPRLPRPRPRPQQWPRP | -0.208
RRIRFRPPRLPRPRPRPQSMPRP | -0.434
